Test in all cases: grating-coupled interferometry
The target of experiment [1] is SARNP UCM-1 and UCM-4 peptides.
Experiment [2] deals with SARNP UCM-1 peptide (GCI) (human).
Experiment [3] addresses TREX-2^M, minimal recombinant TREX-2 complex (GANP Sac3 domain residues 582-1004, PCID2, SEM1) (human) (UniProt O60318).
The target in experiment [4] is UAP56 (DDX39B), recombinant wild type (human, UniProt Q13838 1-428).

No end group written: not given here.

Sequence of UAP56 (DDX39B), recombinant wild type (from UniProt Q13838 1-428) (enzyme) (Q13838 whole entry): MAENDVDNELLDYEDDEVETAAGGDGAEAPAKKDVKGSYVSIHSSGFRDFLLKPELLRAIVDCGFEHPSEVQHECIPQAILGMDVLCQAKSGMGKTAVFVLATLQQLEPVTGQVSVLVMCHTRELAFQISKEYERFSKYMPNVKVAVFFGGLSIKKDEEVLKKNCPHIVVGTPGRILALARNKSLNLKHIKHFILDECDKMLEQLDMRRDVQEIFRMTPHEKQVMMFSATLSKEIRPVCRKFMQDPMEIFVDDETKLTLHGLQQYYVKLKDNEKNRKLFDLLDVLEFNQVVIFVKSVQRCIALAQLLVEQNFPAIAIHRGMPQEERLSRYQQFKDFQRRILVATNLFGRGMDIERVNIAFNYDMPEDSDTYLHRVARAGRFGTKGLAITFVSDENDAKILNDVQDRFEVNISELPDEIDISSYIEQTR
Sequence of UAP56 (DDX39B), recombinant wild type (human, UniProt Q13838 1-428) (Q13838 whole entry): as above
Sequence of TREX-2^M, minimal recombinant TREX-2 complex (GANP Sac3 domain residues 582-1004, PCID2, SEM1) (human) (O60318 582-1004, chain 1 of 3): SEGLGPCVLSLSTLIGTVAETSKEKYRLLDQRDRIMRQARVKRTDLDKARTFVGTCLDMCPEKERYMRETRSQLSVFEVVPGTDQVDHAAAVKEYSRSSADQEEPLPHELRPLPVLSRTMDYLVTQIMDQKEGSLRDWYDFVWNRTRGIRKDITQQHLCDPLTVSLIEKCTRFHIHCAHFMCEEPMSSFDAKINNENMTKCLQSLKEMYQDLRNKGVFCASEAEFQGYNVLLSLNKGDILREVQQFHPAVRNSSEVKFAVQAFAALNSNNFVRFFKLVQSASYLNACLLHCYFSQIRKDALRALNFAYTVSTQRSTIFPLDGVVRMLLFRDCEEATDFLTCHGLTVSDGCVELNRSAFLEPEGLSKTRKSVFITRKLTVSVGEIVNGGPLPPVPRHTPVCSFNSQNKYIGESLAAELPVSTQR
Sequence of TREX-2^M, minimal recombinant TREX-2 complex (GANP Sac3 domain residues 582-1004, PCID2, SEM1) (human) (Q5JVF3 whole entry, chain 2 of 3, further chain, the tested form may be a part): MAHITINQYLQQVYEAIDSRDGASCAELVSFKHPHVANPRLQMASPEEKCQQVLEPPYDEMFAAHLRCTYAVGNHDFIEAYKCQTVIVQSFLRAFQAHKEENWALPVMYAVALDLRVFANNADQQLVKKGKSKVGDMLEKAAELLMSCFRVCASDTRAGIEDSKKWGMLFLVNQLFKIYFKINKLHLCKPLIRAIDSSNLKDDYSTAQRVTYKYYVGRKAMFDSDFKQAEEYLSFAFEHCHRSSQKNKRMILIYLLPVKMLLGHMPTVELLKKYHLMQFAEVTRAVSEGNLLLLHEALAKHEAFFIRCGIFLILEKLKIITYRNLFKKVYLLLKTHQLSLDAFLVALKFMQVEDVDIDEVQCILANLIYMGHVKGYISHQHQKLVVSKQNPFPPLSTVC
Sequence of TREX-2^M, minimal recombinant TREX-2 complex (GANP Sac3 domain residues 582-1004, PCID2, SEM1) (human) (P60896 whole entry, chain 3 of 3, further chain, the tested form may be a part): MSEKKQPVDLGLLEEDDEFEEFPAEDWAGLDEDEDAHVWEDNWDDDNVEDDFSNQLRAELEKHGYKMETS

As usually defined, the Kd is a measure of binding affinity in units of concentration. As for “UAP56 (DDX39B), recombinant wild type (from UniProt Q13838 1-428) (enzyme)”, the Kd was 10 to 20 µM in experiment [1] and 12 µM in experiment [2].

For “UAP56 lacking residues 1-28 (from UniProt Q13838 28-428) (domain or fragment)”, the Kd in experiment [3] was 0.17 µM.

Regarding MDMSLDDII (also: biotin, position not given here) [ALYREF N-UBM peptide (GCI)], the Kd in experiment [4] was determined as 24 µM.

Source of the values: paper doi:10.1101/2024.03.24.586400 (bioRxiv, 2024).
